The text below walks through data of article PMC8893199, “A Cysteine Variant at an Allosteric Site Alters MIF Dynamics and Biological Function in Homo- and Heterotrimeric Assemblies” (Frontiers in Molecular Biosciences, 2022).

This data set concerns the molecule itself. Description: AUC; sedimentation velocity, Y99C MIF homotrimer at three loading concentrations, PBS, 20°C, 50,000 rpm, c(s) analysis in SEDFIT.

B1: Y99C MIF homotrimer (natural protein, human, UniProt P14174 1-115, looked up)
chain: MPMFIVNTNVPRASVPDGFLSELTQQLAQATGKPPQYIAVHVVPDQLMAFGGSSEPCALCSLHSIGKIGGAQNRSYSKLLCGLLAERLRISPDRVYINYCDMNAANVGWNNSTFA
notes: untagged; Made by site-directed mutagenesis of the WT MIF cDNA in pET-11b (construct from Pantouris et al., 2018); also called Y99C variant; homotrimeric Y99C MIF; source: E. coli BL21-Gold (DE3), pET-11b, purified (Q-Sepharose and SP flow-through, Superdex 75)
Take B1: the “stoichiometry N” value turned out to be 3.

Broadly, the stoichiometry N is a count of units in the complex or per binding partner.
